Literature values as cited in US9856460B2, “Nucleic acids encoding synthetic scaffolds and host cells genetically modified with the nucleic acids” (The Regents of the University of California, priority 2008, dated 2018).

Target: T1, WASP GBD (Rattus norvegicus, UniProt O08816)
T1 construct: 196-274
Conditions: partner WASP GBD; measured in trans

T1 sequence (O08816 196-274): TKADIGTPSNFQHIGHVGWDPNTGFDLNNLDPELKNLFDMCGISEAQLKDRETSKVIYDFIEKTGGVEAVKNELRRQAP

## GBD interaction ligand LVGALMHVMQKRSRAIHSSDEGEDQAGDEDED, SEQ ID NO: 30, partner WASP GBD [GBD lig.]
  Kd: 1 µM
